Results as given in patent US20160084825A1.
Where “and” joins values, the source holds several entries; their conditions need not be identical. Identical values can stand only once.

Columns and labels:
[1] = target: LFA-1 disulfide mutant #2 (αL E1061C / β2 G676C) on 293T cells (UniProt P20701); test: flow cytometry (FACS), LFA-1 on transfected 293T cells
[2] = target: LFA-1 disulfide mutant #3 (αL K1062C / β2 G676C) on 293T cells (UniProt P20701); test: as above
[3] = target: LFA-1 disulfide mutant #4 (αL Q1063C / β2 G676C) on 293T cells (UniProt P20701); test: as above
[4] = target: LFA-1 disulfide mutant #5 (αL K1062C / β2 P677C) on 293T cells (UniProt P20701); test: as above
[5] = target: LFA-1 disulfide mutant #6 (αL Q1063C / β2 P677C) on 293T cells (UniProt P20701); test: as above
[6] = target: LFA-1 disulfide mutant #7 (αL M1064C / β2 P677C) on 293T cells (UniProt P20701); test: as above
[7] = target: LFA-1 disulfide mutant #8 (αL Q1063C / β2 N678C) on 293T cells (UniProt P20701); test: as above
[8] = target: LFA-1 disulfide mutant #9 (αL M1064C / β2 N678C) on 293T cells (UniProt P20701); test: as above
[9] = target: wild-type LFA-1 (αLβ2) on 293T cells (UniProt P20701); test: as above
[10] = target: wild-type LFA-1 (αLβ2) on 293T cells (UniProt P20701); test: flow cytometry (FACS), LFA-1 on transfected 293T cells; the reference itself
[11] = target: LFA-1 disulfide mutant #2 (αL E1061C / β2 G676C) on 293T cells (UniProt P20701); test: flow cytometry (FACS), LFA-1 on transfected 293T cells; reference wild-type LFA-1
[12] = target: LFA-1 disulfide mutant #3 (αL K1062C / β2 G676C) on 293T cells (UniProt P20701); test: as above
[13] = target: LFA-1 disulfide mutant #4 (αL Q1063C / β2 G676C) on 293T cells (UniProt P20701); test: as above
[14] = target: LFA-1 disulfide mutant #5 (αL K1062C / β2 P677C) on 293T cells (UniProt P20701); test: as above
[15] = target: LFA-1 disulfide mutant #6 (αL Q1063C / β2 P677C) on 293T cells (UniProt P20701); test: as above
[16] = target: LFA-1 disulfide mutant #7 (αL M1064C / β2 P677C) on 293T cells (UniProt P20701); test: as above
[17] = target: LFA-1 disulfide mutant #8 (αL Q1063C / β2 N678C) on 293T cells (UniProt P20701); test: as above
[18] = target: LFA-1 disulfide mutant #9 (αL M1064C / β2 N678C) on 293T cells (UniProt P20701); test: as above

Chain of LFA-1 disulfide mutant #2 (αL E1061C / β2 G676C) on 293T cells (P20701 26-1170 E1086C, chain 1 of 2): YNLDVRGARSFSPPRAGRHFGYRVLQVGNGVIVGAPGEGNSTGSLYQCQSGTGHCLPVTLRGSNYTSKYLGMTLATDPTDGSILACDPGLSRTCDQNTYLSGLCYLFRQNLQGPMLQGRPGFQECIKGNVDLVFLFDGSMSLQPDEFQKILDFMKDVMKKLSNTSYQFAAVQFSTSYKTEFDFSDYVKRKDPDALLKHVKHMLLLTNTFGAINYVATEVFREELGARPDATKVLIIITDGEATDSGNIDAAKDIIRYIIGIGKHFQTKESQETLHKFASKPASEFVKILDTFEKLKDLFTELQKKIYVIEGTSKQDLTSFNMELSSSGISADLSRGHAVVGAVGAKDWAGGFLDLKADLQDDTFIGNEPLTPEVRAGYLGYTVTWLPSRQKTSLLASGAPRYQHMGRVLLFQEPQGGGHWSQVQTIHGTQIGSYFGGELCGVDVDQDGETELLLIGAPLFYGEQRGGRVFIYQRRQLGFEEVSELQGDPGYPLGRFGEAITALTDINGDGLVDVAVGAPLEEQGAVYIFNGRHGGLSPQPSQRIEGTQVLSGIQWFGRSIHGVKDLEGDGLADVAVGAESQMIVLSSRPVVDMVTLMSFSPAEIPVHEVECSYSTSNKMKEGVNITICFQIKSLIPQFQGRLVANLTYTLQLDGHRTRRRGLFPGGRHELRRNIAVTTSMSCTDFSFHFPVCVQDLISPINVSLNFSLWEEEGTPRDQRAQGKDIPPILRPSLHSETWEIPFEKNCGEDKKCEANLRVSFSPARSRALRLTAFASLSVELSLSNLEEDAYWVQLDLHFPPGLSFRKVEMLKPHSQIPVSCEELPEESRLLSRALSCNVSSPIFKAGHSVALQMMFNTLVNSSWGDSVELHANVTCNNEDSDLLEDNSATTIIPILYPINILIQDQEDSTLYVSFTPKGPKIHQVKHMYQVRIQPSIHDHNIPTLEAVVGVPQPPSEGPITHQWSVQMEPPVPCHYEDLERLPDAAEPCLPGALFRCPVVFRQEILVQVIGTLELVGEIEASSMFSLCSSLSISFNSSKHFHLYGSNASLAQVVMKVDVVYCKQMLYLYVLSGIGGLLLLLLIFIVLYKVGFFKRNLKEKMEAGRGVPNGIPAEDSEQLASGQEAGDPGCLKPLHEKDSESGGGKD
Chain of LFA-1 disulfide mutant #2 (αL E1061C / β2 G676C) on 293T cells (P05107 23-769 G698C, chain 2 of 2, further chain): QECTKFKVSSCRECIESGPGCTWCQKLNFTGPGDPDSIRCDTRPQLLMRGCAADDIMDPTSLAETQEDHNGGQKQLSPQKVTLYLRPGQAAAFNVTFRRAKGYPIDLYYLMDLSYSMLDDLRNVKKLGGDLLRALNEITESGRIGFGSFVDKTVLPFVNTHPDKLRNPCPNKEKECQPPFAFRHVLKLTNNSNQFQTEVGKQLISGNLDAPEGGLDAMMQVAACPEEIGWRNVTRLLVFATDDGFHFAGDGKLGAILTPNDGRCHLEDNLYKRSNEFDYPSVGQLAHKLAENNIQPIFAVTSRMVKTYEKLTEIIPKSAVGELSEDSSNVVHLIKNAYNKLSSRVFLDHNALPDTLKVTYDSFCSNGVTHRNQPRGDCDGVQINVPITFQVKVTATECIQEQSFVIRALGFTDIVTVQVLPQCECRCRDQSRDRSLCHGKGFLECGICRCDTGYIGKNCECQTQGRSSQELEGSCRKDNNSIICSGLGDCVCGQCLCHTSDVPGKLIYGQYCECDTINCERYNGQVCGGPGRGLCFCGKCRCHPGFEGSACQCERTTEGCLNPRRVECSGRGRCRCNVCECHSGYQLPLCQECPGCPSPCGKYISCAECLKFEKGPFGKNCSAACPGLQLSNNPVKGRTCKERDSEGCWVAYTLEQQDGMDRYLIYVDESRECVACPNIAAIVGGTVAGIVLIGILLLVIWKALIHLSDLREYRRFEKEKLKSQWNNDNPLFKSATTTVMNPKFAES
Chain of LFA-1 disulfide mutant #7 (αL M1064C / β2 P677C) on 293T cells (P20701 26-1170 M1089C, chain 1 of 2): as the sequence (P20701 26-1170 E1086C, chain 1 of 2) above, with C1061E, M1064C counted along it
Chain of LFA-1 disulfide mutant #7 (αL M1064C / β2 P677C) on 293T cells (P05107 23-769 P699C, chain 2 of 2, further chain): as the sequence (P05107 23-769 G698C, chain 2 of 2, further chain) above, with C676G, P677C counted along it
Chain of LFA-1 disulfide mutant #9 (αL M1064C / β2 N678C) on 293T cells (P20701 26-1170 M1089C, chain 1 of 2): as the sequence (P20701 26-1170 E1086C, chain 1 of 2) above, with C1061E, M1064C counted along it
Chain of LFA-1 disulfide mutant #9 (αL M1064C / β2 N678C) on 293T cells (P05107 23-769 N700C, chain 2 of 2, further chain): as the sequence (P05107 23-769 G698C, chain 2 of 2, further chain) above, with C676G, N678C counted along it
Chain of LFA-1 disulfide mutant #3 (αL K1062C / β2 G676C) on 293T cells (P20701 26-1170 K1087C, chain 1 of 2): as the sequence (P20701 26-1170 E1086C, chain 1 of 2) above, with C1061E, K1062C counted along it
Chain of LFA-1 disulfide mutant #3 (αL K1062C / β2 G676C) on 293T cells (P05107 23-769 G698C, chain 2 of 2, further chain): as the sequence (P05107 23-769 G698C, chain 2 of 2, further chain) above
Chain of LFA-1 disulfide mutant #5 (αL K1062C / β2 P677C) on 293T cells (P20701 26-1170 K1087C, chain 1 of 2): as the sequence (P20701 26-1170 E1086C, chain 1 of 2) above, with C1061E, K1062C counted along it
Chain of LFA-1 disulfide mutant #5 (αL K1062C / β2 P677C) on 293T cells (P05107 23-769 P699C, chain 2 of 2, further chain): as the sequence (P05107 23-769 G698C, chain 2 of 2, further chain) above, with C676G, P677C counted along it
Chain of LFA-1 disulfide mutant #4 (αL Q1063C / β2 G676C) on 293T cells (P20701 26-1170 Q1088C, chain 1 of 2): as the sequence (P20701 26-1170 E1086C, chain 1 of 2) above, with C1061E, Q1063C counted along it
Chain of LFA-1 disulfide mutant #4 (αL Q1063C / β2 G676C) on 293T cells (P05107 23-769 G698C, chain 2 of 2, further chain): as the sequence (P05107 23-769 G698C, chain 2 of 2, further chain) above
Chain of LFA-1 disulfide mutant #6 (αL Q1063C / β2 P677C) on 293T cells (P20701 26-1170 Q1088C, chain 1 of 2): as the sequence (P20701 26-1170 E1086C, chain 1 of 2) above, with C1061E, Q1063C counted along it
Chain of LFA-1 disulfide mutant #6 (αL Q1063C / β2 P677C) on 293T cells (P05107 23-769 P699C, chain 2 of 2, further chain): as the sequence (P05107 23-769 G698C, chain 2 of 2, further chain) above, with C676G, P677C counted along it
Chain of LFA-1 disulfide mutant #8 (αL Q1063C / β2 N678C) on 293T cells (P20701 26-1170 Q1088C, chain 1 of 2): as the sequence (P20701 26-1170 E1086C, chain 1 of 2) above, with C1061E, Q1063C counted along it
Chain of LFA-1 disulfide mutant #8 (αL Q1063C / β2 N678C) on 293T cells (P05107 23-769 N700C, chain 2 of 2, further chain): as the sequence (P05107 23-769 G698C, chain 2 of 2, further chain) above, with C676G, N678C counted along it
Chain of wild-type LFA-1 (αLβ2) on 293T cells (P20701 26-1170 limits assumed, chain 1 of 2): as the sequence (P20701 26-1170 E1086C, chain 1 of 2) above, with C1061E counted along it
Chain of wild-type LFA-1 (αLβ2) on 293T cells (P05107 23-769 limits assumed, chain 2 of 2, further chain): as the sequence (P05107 23-769 G698C, chain 2 of 2, further chain) above, with C676G counted along it

**Q.** MHM24 (antibody) was tested. Which Mean (FACS mean fluorescence) [1] did it give?
**A.** 97.4

**Q.** And the Mean (FACS mean fluorescence) [2]?
**A.** 117

**Q.** And the Mean (FACS mean fluorescence) [3]?
**A.** 95.9

**Q.** What about the Mean (FACS mean fluorescence) [4] of the same substance?
**A.** 102

**Q.** And the Mean (FACS mean fluorescence) [5]?
**A.** 117

**Q.** What about the Mean (FACS mean fluorescence) [6] of the same substance?
**A.** 126

**Q.** And the Mean (FACS mean fluorescence) [7]?
**A.** 88.5

**Q.** And the Mean (FACS mean fluorescence) [8]?
**A.** 147

**Q.** X63 (antibody) was tested. Which Mean (FACS mean fluorescence) [8] did it give?
**A.** 4.06

**Q.** What about the Mean (FACS mean fluorescence) [9] of the same substance?
**A.** 5.96

**Q.** Which results are given for KIM127 (antibody)?
**A.** Mean (FACS mean fluorescence) [1]: 8.27 and 9.59; Mean value normalized with expression level (MHM24) [1]: 0.016 and 0.044; Mean (FACS mean fluorescence) [2]: 11.1 and 15.8; Mean value normalized with expression level (MHM24) [2]: 0.039 and 0.093; Mean (FACS mean fluorescence) [3]: 12.1 and 12.2; Mean value normalized with expression level (MHM24) [3]: 0.06 and 0.074; Mean (FACS mean fluorescence) [4]: 10.3 and 9.36; Mean value normalized with expression level (MHM24) [4]: 0.036 and 0.04; Mean (FACS mean fluorescence) [5]: 10.9 and 14.4; Mean value normalized with expression level (MHM24) [5]: 0.037 and 0.08; Mean (FACS mean fluorescence) [6]: 10.8 and 11.8; Mean value normalized with expression level (MHM24) [6]: 0.033 and 0.053; Mean (FACS mean fluorescence) [7]: 8.54 and 12.2; Mean (FACS mean fluorescence) [8]: 10 and 12.1; Mean value normalized with expression level (MHM24) [8]: 0.023 and 0.047; Mean (FACS mean fluorescence) [9]: 12.2 and 13.9; Mean value normalized with expression level (MHM24) [9]: 0.035 and 0.055; normalized mean relative to wild-type (WT is set to 1.0) [10]: 1; normalized mean relative to wild-type (WT is set to 1.0) [11]: 0.46 and 0.81; normalized mean relative to wild-type (WT is set to 1.0) [12]: 1.12 and 1.69; normalized mean relative to wild-type (WT is set to 1.0) [13]: 1.69 and 1.35; normalized mean relative to wild-type (WT is set to 1.0) [14]: 1.03 and 0.73; normalized mean relative to wild-type (WT is set to 1.0) [15]: 1.06 and 1.47; normalized mean relative to wild-type (WT is set to 1.0) [16]: 0.95 and 0.96; normalized mean relative to wild-type (WT is set to 1.0) [17]: 0.61 and 1.49; normalized mean relative to wild-type (WT is set to 1.0) [18]: 0.66 and 0.85

**Q.** With m24 (antibody) as the substance, how does the Mean (FACS mean fluorescence) [1] read?
**A.** 35.8

**Q.** What about the Mean value normalized with expression level (MHM24) [1] of the same substance?
**A.** 0.33

**Q.** And the Mean (FACS mean fluorescence) [2]?
**A.** 57.4

**Q.** What about the Mean value normalized with expression level (MHM24) [2] of the same substance?
**A.** 0.46

**Q.** What about the Mean (FACS mean fluorescence) [3] of the same substance?
**A.** 47.8

**Q.** And the Mean value normalized with expression level (MHM24) [3]?
**A.** 0.46

**Q.** And the Mean (FACS mean fluorescence) [4]?
**A.** 43.5

**Q.** What about the Mean value normalized with expression level (MHM24) [4] of the same substance?
**A.** 0.39

**Q.** What about the Mean (FACS mean fluorescence) [5] of the same substance?
**A.** 52.3

**Q.** And the Mean value normalized with expression level (MHM24) [5]?
**A.** 0.42

**Q.** And the Mean (FACS mean fluorescence) [6]?
**A.** 53

**Q.** And the Mean value normalized with expression level (MHM24) [6]?
**A.** 0.39

**Q.** What about the Mean (FACS mean fluorescence) [7] of the same substance?
**A.** 38.6

**Q.** And the Mean value normalized with expression level (MHM24) [7]?
**A.** 0.4

**Q.** And the Mean (FACS mean fluorescence) [8]?
**A.** 57.1

**Q.** What about the Mean value normalized with expression level (MHM24) [8] of the same substance?
**A.** 0.36

**Q.** What about the Mean (FACS mean fluorescence) [9] of the same substance?
**A.** 66.3

**Q.** And the Mean value normalized with expression level (MHM24) [9]?
**A.** 0.39

**Q.** And the normalized mean relative to wild-type (WT is set to 1.0) [10]?
**A.** 1

**Q.** And the normalized mean relative to wild-type (WT is set to 1.0) [11]?
**A.** 0.83

**Q.** What about the normalized mean relative to wild-type (WT is set to 1.0) [12] of the same substance?
**A.** 1.17

**Q.** What about the normalized mean relative to wild-type (WT is set to 1.0) [13] of the same substance?
**A.** 1.18

**Q.** What about the normalized mean relative to wild-type (WT is set to 1.0) [14] of the same substance?
**A.** 0.99

**Q.** What about the normalized mean relative to wild-type (WT is set to 1.0) [15] of the same substance?
**A.** 1.06

**Q.** And the normalized mean relative to wild-type (WT is set to 1.0) [16]?
**A.** 0.99

**Q.** And the normalized mean relative to wild-type (WT is set to 1.0) [17]?
**A.** 1

**Q.** And the normalized mean relative to wild-type (WT is set to 1.0) [18]?
**A.** 0.92
